Data: paper PMC10248533, “Structures of Get3d reveal a distinct architecture associated with the emergence of photosynthesis” (The Journal of Biological Chemistry, 2023)

Assays:
Assay in all cases: EnzChek phosphate release assay (PNP-coupled, A360)
[1] = substrate: Nc1ncnc2c1ncn2[C@@H]1O[C@H](COP(=O)(O)OP(=O)(O)OP(=O)(O)O)[C@@H](O)[C@H]1O; assay type: biochemical, Arabidopsis thaliana; settings: 37 °C, pH 7.5, 5 mM MgCl2, 15 μM enzyme, 0-2 mM ATP
[2] = substrate: Nc1ncnc2c1ncn2[C@@H]1O[C@H](COP(=O)(O)OP(=O)(O)OP(=O)(O)O)[C@@H](O)[C@H]1O; assay type: biochemical, Nostoc sp. PCC 7120 = FACHB-418; settings: 37 °C, pH 7.5, 5 mM MgCl2, 15 μM enzyme, 0-2 mM ATP
[3] = substrate: Nc1ncnc2c1ncn2[C@@H]1O[C@H](COP(=O)(O)OP(=O)(O)OP(=O)(O)O)[C@@H](O)[C@H]1O; assay type: biochemical, Saccharomyces cerevisiae; settings: 37 °C, pH 7.5, 5 mM MgCl2, 2.5 μM enzyme, 0-2 mM ATP

B1: AtGet3d (Arabidopsis thaliana) (protein)
chain: TKFVTFLGKGGSGKTTAAVFAAQHYALAGLSTCLVIHNQDPSAEFLLGSKIGTSPTLINDNLSVIRLETTKMLLEPLKQLKQADARLNMTQGVLEGVVGEELGVLPGMDSIFSMLELERLVGFFRQATRKNHKGKPFDVIIYDGISTEETLRMIGLSSKTRLYAKYLRSLAEKTDLGRLTSPSIMRFVDESMNINSNKSPFDGMTSPAMWDTLERFLETGASAWRDPERFRSFLVMDPNNPMSVKAALRYWGCTVQAGSHVSGAFAISSSHLTSQIPKADFVPLPFASASVPFTITGLDWDKILLDQANSSIRELLSETVSHGTSLTQTVMFDTAKKLVTLFMPGFEKSEIKLYQYRGGSELLIEAGDQRRVIHLPSQIQGKVGGAKFVDRSLIVTMR
notes: delta1-57 (chloroplast transit peptide removed), expressed in E. coli; ATPase assay: N-terminal His6-3C tag; crystal: pET22b(+) NdeI-XhoI construct; homodimer
Km [1]: 351 ± 4 µM
kcat [1]: 0.0183 ± 0.00017 s⁻¹

B2: NosGet3d (Nostoc sp. PCC 7120 = FACHB-418) (protein)
chain: MALILTFLGKSGVARTKIAIAAAKLLASQGKRVLLAGLAEPVLPLLLEQTLTPDPQQIAPNLEVVQFQSSVLLERNWEEVKKLEAQYLRTPIIKEVYGQELVVLPGMDSALALNAIREYDASGKYDAIVYDGTGDAFTLRMLGLPESLSWYVRRFRQLFVNSDLGKTIAESPLIQPLISSFFNVNWTADNFAQPTNQVNNFLDKGKEALADPKRVAAFLVTTADPLEVVSVRYLWGSAQQIGLTIGGVIQVSSQTEGDLSAEFTPLSVTVVPDVTKGDWQPLIDALPNFVEQAEQAPKPITIDTHNRQVRLFLPGFDKKQVKLTQYGPEVTVEAGDQRRNIFLPPALSGRPITGAKFQNNYLIISF
notes: N-terminal His6-TEV tag (pET33b), expressed in E. coli; homodimer
Km [2]: 353 ± 10 µM
kcat [2]: 0.00467 ± 0.00017 s⁻¹

B3: ScGet3 (yeast Get3) (Saccharomyces cerevisiae S288C) (protein)
chain: MDLTVEPNLHSLITSTTHKWIFVGGKGGVGKTTSSCSIAIQMALSQPNKQFLLISTDPAHNLSDAFGEKFGKDARKVTGMNNLSCMEIDPSAALKDMNDMAVSRANNNGSDGQGDDLGSLLQGGALADLTGSIPGIDEALSFMEVMKHIKRQEQGEGETFDTVIFDTAPTGHTLRFLQLPNTLSKLLEKFGEITNKLGPMLNSFMGAGNVDISGKLNELKANVETIRQQFTDPDLTTFVCVCISEFLSLYETERLIQELISYDMDVNSIIVNQLLFAENDQEHNCKRCQARWKMQKKYLDQIDELYEDFHVVKMPLCAGEIRGLNNLTKFSQFLNKEYNPITDGKVIYELEDKE
notes: N-terminal His6-TEV tag (pET33b), expressed in E. coli
Km [3]: 48 ± 2 µM
kcat [3]: 0.045 ± 0.00033 s⁻¹
